For 1 substance, Geo Mean Ratio results are on record in patent publication US20050244868A1.

Assay [1] has as its target CG55069 (Ten-M3), endogenous on human tumour, lymphoma and leukemia cell lines (human) (UniProt Q9P273). The assay can be described thus: flow cytometry on SR cells, negative control antibody. (In general: Flow cytometry measures light scatter and fluorescence of single cells or particles in a stream.)
For assay [2] the target is unchanged. Briefly: flow cytometry on DEL cells, negative control antibody.
Assay [3] shares this target. The assay can be described thus: flow cytometry on MOLT-4 cells, negative control antibody.
The target is the same in assay [4]. The assay can be described thus: flow cytometry on MV4-11 cells, negative control antibody.
Assay [5] has the same target. The assay can be described thus: flow cytometry on SUP-M2 cells, negative control antibody.
The target is the same in assay [6]. Briefly: flow cytometry on CCRF-CEM cells, negative control antibody.
The target is the same in assay [7]. The assay can be described thus: flow cytometry on SU-DHL-4 cells, negative control antibody.
For assay [8] the target is unchanged. Briefly: flow cytometry on Karpas 299 cells, negative control antibody.

Chain of UniProt Q9P273 (Q9P273 other isoform, or with tags, fused parts or gaps): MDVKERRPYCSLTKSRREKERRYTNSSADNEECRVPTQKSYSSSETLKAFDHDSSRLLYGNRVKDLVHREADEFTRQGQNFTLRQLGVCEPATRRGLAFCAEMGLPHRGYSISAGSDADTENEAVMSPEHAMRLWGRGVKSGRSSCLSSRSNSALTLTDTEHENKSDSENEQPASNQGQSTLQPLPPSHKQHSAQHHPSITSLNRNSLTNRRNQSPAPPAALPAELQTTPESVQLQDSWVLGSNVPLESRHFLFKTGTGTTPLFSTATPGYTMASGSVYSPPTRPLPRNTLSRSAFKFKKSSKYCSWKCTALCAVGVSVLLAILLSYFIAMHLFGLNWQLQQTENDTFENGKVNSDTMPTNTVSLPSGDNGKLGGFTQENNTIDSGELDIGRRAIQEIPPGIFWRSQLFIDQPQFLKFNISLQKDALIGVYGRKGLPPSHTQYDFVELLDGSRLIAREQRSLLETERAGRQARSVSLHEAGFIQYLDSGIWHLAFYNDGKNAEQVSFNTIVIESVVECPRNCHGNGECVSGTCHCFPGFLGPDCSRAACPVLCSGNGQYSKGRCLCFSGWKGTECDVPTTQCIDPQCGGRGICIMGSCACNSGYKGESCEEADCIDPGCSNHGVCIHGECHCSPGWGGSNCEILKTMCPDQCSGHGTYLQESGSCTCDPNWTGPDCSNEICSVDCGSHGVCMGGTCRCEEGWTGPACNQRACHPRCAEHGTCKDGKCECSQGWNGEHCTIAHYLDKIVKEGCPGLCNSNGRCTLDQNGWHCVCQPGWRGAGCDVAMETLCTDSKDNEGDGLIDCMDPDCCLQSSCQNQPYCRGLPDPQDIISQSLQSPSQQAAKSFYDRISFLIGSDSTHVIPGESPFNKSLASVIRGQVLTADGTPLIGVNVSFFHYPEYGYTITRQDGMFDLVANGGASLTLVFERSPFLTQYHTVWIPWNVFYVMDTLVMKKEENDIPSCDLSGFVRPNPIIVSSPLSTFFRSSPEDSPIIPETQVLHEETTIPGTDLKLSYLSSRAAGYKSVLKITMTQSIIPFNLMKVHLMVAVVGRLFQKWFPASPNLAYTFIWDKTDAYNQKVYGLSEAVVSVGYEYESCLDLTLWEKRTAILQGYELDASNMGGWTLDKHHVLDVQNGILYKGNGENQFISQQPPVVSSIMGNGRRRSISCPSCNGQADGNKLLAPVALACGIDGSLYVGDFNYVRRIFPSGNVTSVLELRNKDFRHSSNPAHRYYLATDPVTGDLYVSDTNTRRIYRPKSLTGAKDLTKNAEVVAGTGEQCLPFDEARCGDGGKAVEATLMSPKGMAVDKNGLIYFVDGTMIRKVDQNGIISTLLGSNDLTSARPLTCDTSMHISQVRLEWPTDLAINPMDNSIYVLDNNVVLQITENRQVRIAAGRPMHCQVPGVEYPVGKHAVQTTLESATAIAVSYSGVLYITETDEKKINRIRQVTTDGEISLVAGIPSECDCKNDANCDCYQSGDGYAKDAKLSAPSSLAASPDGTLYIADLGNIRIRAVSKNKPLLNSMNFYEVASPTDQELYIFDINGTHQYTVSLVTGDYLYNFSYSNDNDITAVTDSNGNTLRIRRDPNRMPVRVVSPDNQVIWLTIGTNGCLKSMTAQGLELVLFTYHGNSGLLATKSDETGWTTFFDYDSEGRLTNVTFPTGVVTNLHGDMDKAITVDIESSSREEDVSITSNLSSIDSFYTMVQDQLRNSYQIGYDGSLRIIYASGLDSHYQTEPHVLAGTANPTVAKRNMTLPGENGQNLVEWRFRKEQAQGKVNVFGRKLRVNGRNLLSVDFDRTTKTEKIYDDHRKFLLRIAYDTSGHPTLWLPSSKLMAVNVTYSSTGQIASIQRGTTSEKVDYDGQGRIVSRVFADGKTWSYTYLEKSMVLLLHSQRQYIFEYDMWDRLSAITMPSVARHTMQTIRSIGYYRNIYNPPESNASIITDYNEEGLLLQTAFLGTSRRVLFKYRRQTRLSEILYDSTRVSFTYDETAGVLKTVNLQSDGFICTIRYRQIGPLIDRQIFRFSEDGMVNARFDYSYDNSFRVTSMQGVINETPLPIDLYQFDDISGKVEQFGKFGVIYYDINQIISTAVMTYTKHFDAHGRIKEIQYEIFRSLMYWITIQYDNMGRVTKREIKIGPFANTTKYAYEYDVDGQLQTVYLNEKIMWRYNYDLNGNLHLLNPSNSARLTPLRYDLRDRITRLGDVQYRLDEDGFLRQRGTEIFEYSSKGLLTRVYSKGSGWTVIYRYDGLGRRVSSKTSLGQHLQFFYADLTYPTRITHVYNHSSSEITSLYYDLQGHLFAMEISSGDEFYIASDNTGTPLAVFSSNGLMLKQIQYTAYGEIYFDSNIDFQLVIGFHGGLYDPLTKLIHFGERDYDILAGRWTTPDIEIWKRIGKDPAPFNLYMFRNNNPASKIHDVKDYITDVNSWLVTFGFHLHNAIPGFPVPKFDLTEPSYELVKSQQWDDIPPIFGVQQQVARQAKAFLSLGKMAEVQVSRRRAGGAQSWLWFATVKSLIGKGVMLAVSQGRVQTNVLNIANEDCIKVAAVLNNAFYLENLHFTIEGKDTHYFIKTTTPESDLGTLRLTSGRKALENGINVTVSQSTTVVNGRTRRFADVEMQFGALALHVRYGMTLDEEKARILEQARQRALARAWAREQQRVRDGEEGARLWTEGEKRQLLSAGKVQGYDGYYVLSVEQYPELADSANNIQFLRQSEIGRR

Rabbit negative (control antibody): the Geo Mean Ratio is 4.29 in assay [1]; 7.41 in assay [2]; 4.13 in assay [3]; 90.7 in assay [4]; 6.13 in assay [5]; 4.22 in assay [6]. In addition, the figures for the Geo Mean Ratio in assay [7] and in assay [8] were 2.38 and 5.08, respectively.
